B4: B7-DCIg (Fc fusion, Mus musculus, UniProt Q9WUL5 20-219, looked up)
fusion protein: LFTVTAPKEVYTVDVGSSVSLECDFDRRECTELEGIRASLQKVENDTSLQSERATLLEEQLPLGKALFHIPSVQVRDSGQYRCLVICGAAWDYKYLTVKVKASYMRIDTRILEVPGTGEVQLTCQARGYPLAEVSWQNVSVPANTSHIRTPEGLYQVTSVLRLKPQPSRNFSCMFWNAHMKELTSAIIDPLSRMEPKVPR
notes: Ig fusion protein purchased from R&D systems; also called mouse B7-DCIg fusion protein
B5: ICOS (receptor, Mus musculus, UniProt Q9WVS0 21-200, looked up)
membrane protein: EINGSADHRMFSFHNGGVQISCKYPETVQQLKMRLFREREVLCELTKTKGSGNAVSIKNPMLCLYHLSNNSVSFFLNNPDSSQGSYYFCSLSIFDPPPFQERNLSGGYLHIYESQLCCQLKLWLPVGCAAFVVVLLFGCILIIWFSKKKYGSSVHDPNSEYMFMAAVNTNKKSRLAGVTS

Test [1] concerns the target T1, human B7-H2, full length, expressed on cells (B7-H2+293T cells) (human, UniProt O75144 19-302).
T1 construct: This id also stands for endogenous B7-H2 on monocyte-derived dendritic cells in the functional rows; also called ICOSL; ICOSLG
T1 sequence: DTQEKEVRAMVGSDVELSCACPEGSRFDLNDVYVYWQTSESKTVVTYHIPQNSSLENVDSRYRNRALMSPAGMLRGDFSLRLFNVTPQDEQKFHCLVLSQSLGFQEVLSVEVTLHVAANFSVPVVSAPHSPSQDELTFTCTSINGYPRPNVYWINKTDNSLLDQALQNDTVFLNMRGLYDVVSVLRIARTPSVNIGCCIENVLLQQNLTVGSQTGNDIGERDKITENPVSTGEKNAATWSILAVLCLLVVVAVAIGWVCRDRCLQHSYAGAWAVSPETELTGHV
Briefly: CDS well image, 293T cells transfected with the human gene, stained with the human fusion protein.

For test [2], the target named is T2, human B7-2 (CD86, B70) expressed on 293T cells (human, UniProt P42081 24-329).
T2 construct: whole, on cells
T2 sequence (looked up): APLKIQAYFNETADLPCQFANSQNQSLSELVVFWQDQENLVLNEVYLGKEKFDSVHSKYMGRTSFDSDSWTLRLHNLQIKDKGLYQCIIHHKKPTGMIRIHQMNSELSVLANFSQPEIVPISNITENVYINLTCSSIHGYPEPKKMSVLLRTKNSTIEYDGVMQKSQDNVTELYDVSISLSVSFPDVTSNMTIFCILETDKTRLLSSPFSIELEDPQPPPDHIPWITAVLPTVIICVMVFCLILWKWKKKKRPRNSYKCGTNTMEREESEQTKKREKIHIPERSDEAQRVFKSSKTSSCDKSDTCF
The description is as above.

Test [3] addresses T3, human B7-DC expressed on 293T cells (human, UniProt Q9BQ51 20-273).
T3 construct: whole, on cells
T3 sequence (looked up): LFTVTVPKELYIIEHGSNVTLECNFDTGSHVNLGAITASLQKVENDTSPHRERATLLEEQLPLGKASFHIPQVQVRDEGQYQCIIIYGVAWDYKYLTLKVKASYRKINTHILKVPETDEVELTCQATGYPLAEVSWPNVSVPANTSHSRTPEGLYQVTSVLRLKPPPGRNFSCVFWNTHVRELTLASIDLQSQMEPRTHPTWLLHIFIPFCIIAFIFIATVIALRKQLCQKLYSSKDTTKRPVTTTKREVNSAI
The description is as above.

For test [4], the target named is T4, human B7-1 (CD80) expressed on 293T cells (human, UniProt P33681 35-288).
T4 construct: whole, on cells
T4 sequence (looked up): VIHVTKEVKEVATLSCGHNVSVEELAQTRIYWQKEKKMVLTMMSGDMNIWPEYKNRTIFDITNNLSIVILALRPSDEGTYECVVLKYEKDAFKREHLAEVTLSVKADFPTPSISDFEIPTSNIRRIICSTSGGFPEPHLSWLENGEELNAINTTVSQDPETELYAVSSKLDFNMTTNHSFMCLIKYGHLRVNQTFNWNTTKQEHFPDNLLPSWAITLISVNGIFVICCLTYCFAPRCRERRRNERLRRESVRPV
Described as above.

Test [5] concerns the target T5, human B7-H1 expressed on 293T cells (human, UniProt Q9NZQ7 19-290).
T5 construct: whole, on cells
The description is as above.

The test “ICOS” has as its target B5. In words: CDS well image, 293T cells transfected with the mouse gene, stained with the mouse fusion protein.
The target of another test is T6, PD-1 (Mus musculus, UniProt Q02242).
T6 sequence (membrane protein, looked up): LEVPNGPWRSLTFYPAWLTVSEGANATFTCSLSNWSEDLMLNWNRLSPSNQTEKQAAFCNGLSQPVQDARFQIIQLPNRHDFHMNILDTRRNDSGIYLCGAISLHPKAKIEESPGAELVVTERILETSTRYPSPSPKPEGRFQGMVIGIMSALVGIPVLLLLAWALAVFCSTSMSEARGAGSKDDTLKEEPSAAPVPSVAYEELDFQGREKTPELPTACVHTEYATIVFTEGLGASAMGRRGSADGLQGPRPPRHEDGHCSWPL
The description is as above.

A further test concerns the target T7, CD28 (Mus musculus, UniProt P31041).
T7 sequence (membrane protein, looked up): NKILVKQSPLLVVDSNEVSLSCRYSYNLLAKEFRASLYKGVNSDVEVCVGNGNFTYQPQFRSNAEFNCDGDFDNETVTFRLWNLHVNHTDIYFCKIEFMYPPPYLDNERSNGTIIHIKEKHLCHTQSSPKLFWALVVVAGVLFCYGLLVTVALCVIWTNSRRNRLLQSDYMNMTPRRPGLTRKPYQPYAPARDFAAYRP
The description is as above.

The next test concerns the target B7-H1 (Mus musculus, UniProt Q9EP73). The description is as above.
A further test concerns the target CTLA-4 (Mus musculus, UniProt P09793). Described as above.
Test [6] concerns the target T8, mouse B7-H2, full length, expressed on 293T cells (mouse, UniProt Q9JHJ8 44-322).
T8 construct: whole, on cells
T8 sequence (looked up): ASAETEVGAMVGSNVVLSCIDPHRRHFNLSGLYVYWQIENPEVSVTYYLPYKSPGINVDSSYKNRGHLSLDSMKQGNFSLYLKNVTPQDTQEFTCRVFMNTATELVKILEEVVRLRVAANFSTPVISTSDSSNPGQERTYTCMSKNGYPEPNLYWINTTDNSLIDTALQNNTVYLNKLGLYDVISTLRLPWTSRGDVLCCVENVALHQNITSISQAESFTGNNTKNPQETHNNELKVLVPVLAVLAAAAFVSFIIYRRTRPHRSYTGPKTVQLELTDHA
Described as above.

The next test deals with T9, B7-DC (Mus musculus, UniProt Q9WUL5).
T9 sequence (membrane protein, looked up): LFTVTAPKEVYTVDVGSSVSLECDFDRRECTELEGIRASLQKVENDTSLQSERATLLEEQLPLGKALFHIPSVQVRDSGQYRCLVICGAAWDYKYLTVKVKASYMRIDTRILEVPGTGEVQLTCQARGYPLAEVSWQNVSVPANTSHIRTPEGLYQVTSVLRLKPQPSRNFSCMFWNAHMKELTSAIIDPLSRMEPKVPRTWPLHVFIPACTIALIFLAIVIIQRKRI
The test is described as above.

The next test has as its target T10, B7-H1Ig (Mus musculus, UniProt Q9EP73).
T10 construct: Ig fusion protein purchased from R&D systems; also called mouse B7-H1Ig fusion protein
Described as above.

In the test “B7-DCIg” the target is B4. The description is as above.

Chain of B7-H1 (Q9EP73 19-290 limits assumed): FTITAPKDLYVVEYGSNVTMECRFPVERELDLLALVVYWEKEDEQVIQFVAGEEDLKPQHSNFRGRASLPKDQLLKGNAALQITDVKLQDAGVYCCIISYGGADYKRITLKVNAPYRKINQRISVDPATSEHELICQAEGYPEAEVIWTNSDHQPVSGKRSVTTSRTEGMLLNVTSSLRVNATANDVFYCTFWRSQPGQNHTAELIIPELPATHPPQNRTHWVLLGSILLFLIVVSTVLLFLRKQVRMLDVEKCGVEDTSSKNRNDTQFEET
T5 sequence (Q9NZQ7 19-290): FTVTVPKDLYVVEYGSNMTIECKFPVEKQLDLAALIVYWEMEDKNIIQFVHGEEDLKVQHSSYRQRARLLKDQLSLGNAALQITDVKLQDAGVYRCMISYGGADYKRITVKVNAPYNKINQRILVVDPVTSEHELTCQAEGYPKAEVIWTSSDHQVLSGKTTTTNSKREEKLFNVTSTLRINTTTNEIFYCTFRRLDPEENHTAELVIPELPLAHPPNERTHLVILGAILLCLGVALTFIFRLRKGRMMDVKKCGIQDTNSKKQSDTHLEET
T10 sequence (Q9EP73 19-238 limits assumed): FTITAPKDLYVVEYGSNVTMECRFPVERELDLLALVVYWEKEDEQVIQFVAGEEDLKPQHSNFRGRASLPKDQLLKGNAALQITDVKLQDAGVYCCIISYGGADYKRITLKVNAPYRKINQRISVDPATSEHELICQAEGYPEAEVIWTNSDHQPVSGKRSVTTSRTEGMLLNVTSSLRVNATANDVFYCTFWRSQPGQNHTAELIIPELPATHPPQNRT

B1: human B7-1Ig fusion protein (Fc fusion, UniProt P33681 35-242, looked up)
chain: VIHVTKEVKEVATLSCGHNVSVEELAQTRIYWQKEKKMVLTMMSGDMNIWPEYKNRTIFDITNNLSIVILALRPSDEGTYECVVLKYEKDAFKREHLAEVTLSVKADFPTPSISDFEIPTSNIRRIICSTSGGFPEPHLSWLENGEELNAINTTVSQDPETELYAVSSKLDFNMTTNHSFMCLIKYGHLRVNQTFNWNTTKQEHFPDN
notes: Bought from R&D Systems; Ig (Fc) part not given
As to B1, the binding result in test [1], in test [2], in test [3] and in [4] was “no binding” in each case.

B2: human B7-H2Ig fusion protein (Fc fusion)
chain: DTQEKEVRAMVGSDVELSCACPEGSRFDLNDVYVYWQTSESKTVVTYHIPQNSSLENVDSRYRNRALMSPAGMLRGDFSLRLFNVTPQDEQKFHCLVLSQSLGFQEVLSVEVTLHVAANFSVPVVSAPHSPSQDELTFTCTSINGYPRPNVYWINKTDNSLLDQALQNDTVFLNMRGLYDVVSVLRIARTPSVNIGCCIENVLLQQNLTVGSQTGNDIGERDKITENPVSTGEKNAATWS
notes: Ig (Fc) part not given
As for B2, the binding result in [1], in test [2], in [3], in [5] and in [4] was “no binding” throughout.

B3: PD-1Ig (Fc fusion, Mus musculus, UniProt Q02242 25-167, looked up)
fusion protein: LEVPNGPWRSLTFYPAWLTVSEGANATFTCSLSNWSEDLMLNWNRLSPSNQTEKQAAFCNGLSQPVQDARFQIIQLPNRHDFHMNILDTRRNDSGIYLCGAISLHPKAKIEESPGAELVVTERILETSTRYPSPSPKPEGRFQ
notes: Ig fusion protein purchased from R&D systems; also called mouse PD-1Ig fusion protein
Consider B3, for which the binding result in the test with ICOS is “no binding”; with PD-1 it was “no binding”; with CD28 it was “no binding”; in the test with B7-H1, “binds”; with CTLA-4, “no binding”; in test [6], “no binding”. Further, the binding result in the test with B7-DC is “binds”.

As for B4, the binding result is on record as “binds” with PD-1, “no binding” in the test with B7-H1, “no binding” in test [6] and “no binding” with B7-DC.

As to B5, the binding result in the test with B7-H1Ig and with B7-DCIg was “no binding” in each case.

B6: B7-H2Ig (Fc fusion, Mus musculus, UniProt Q9JHJ8 47-279, looked up)
fusion protein: ETEVGAMVGSNVVLSCIDPHRRHFNLSGLYVYWQIENPEVSVTYYLPYKSPGINVDSSYKNRGHLSLDSMKQGNFSLYLKNVTPQDTQEFTCRVFMNTATELVKILEEVVRLRVAANFSTPVISTSDSSNPGQERTYTCMSKNGYPEPNLYWINTTDNSLIDTALQNNTVYLNKLGLYDVISTLRLPWTSRGDVLCCVENVALHQNITSISQAESFTGNNTKNPQETHNNELK
notes: Ig fusion protein purchased from R&D systems; also called mouse B7-H2Ig fusion protein
On to B6, for which the binding result (with PD-1; with B7-H1; in [6]) was “no binding” throughout.

B7: ICOSIg (Fc fusion, Mus musculus, UniProt Q9WVS0 21-144, looked up)
fusion protein: EINGSADHRMFSFHNGGVQISCKYPETVQQLKMRLFREREVLCELTKTKGSGNAVSIKNPMLCLYHLSNNSVSFFLNNPDSSQGSYYFCSLSIFDPPPFQERNLSGGYLHIYESQLCCQLKLWL
notes: Ig fusion protein purchased from R&D systems; also called mouse ICOSIg fusion protein
Regarding B7, the binding result with ICOS is listed as “no binding”; in the test with PD-1, “no binding”; with CD28 it was “no binding”; with B7-H1, “no binding”; with CTLA-4 it was “no binding”; in test [6] it was “binds”. For the same molecule, the binding result with B7-DC was “no binding”.

The values are drawn from US20120219559A1 (Johns Hopkins, published 2012).
